2 sequences from article PMC6889386 can be followed below.

The target in the data set is EGFR on A549-derived exosomes (A-Exo) (UniProt P00533). Briefly: flow cytometry. As to conditions: MSN-aptamer conjugates incubated with PKH67-labelled exosomes in cell medium or rat blood (37 C, 1-4 h, static or 100 rpm), buffer details not given. For orientation: Flow cytometry measures light scatter and fluorescence of single cells or particles in a stream.

“TACCAGTGCGATGCTCAGTGCCGTTTCTTCTCTTTCGCTTTTTTTGCTTTTGAGCATGCTGACGCATTCGGTTGAC [anti-EGFR DNA aptamer on negatively charged MSN (MSN-AP-)]”: the binding signal (% positive events) (amino-functionalized (terminus not stated), EDC/NHS-conjugated to MSN-COOH nanoparticle) was found to be 8.1.

In the case of “TACCAGTGCGATGCTCAGTGCCGTTTCTTCTCTTTCGCTTTTTTTGCTTTTGAGCATGCTGACGCATTCGGTTGAC [anti-EGFR DNA aptamer on positively charged MSN (MSN-AP)]”, the binding signal (% positive events) (carboxyl-functionalized (terminus not stated), EDC/NHS-conjugated to MSN-NH2 nanoparticle) came out at 26.6.
